Assay results as given in publication PMC2714072.

Assays:
[1] = target: SYT/L (long isoform of SYT/SS18), monkey (Cos-1) (monkey (endogenous in Cos-1)); test: co-IP; endogenous proteins; post-nuclear (cytosolic) lysates of U2OS or Cos-1 cells in MLB buffer (25 mM HEPES pH 7.5, 150 mM NaCl, 1% Igepal CA-630, 10 mM MgCl2, 1 mM EDTA, 2% glycerol, 1 mM ATP); 1 µg pSYT or SYT/L-specific antibody overnight, Protein G PLUS-Agarose, 3 washes with RIPA buffer; bands stained with SYPRO Ruby, excised and identified by nano LC/MS/MS; controls: IgG and lysates of panSYT229 RNAi cells; Cos-1 lysates also pre-incubated with 100 µM GTP-γS or 1 mM GDP for 30 min at 30°C
[2] = target: SYT/S (short isoform of SYT/SS18), monkey (Cos-1) (monkey (endogenous in Cos-1)); test: as above

difference in co-immunoprecipitated level between lysates with GTP-γS and with GDP [1]: < 5%
difference in co-immunoprecipitated level between lysates with GTP-γS and with GDP [2]: < 5%
Substance: actin, monkey (Cos-1) (from UniProt Q76N69 1-375) (natural protein)
